Reference: article PMC7549315

Assays:
SAF-A^CtermΔ–GFP = test: co-IP
SAF-A^RGG1-7Δ–GFP = SAF-A^RGG1-7Δ–GFP (UniProt Q00839); test: co-IP
SAF-A^RGG1-7Δ–GFP, sequence (Q00839 whole entry, stated change not applied): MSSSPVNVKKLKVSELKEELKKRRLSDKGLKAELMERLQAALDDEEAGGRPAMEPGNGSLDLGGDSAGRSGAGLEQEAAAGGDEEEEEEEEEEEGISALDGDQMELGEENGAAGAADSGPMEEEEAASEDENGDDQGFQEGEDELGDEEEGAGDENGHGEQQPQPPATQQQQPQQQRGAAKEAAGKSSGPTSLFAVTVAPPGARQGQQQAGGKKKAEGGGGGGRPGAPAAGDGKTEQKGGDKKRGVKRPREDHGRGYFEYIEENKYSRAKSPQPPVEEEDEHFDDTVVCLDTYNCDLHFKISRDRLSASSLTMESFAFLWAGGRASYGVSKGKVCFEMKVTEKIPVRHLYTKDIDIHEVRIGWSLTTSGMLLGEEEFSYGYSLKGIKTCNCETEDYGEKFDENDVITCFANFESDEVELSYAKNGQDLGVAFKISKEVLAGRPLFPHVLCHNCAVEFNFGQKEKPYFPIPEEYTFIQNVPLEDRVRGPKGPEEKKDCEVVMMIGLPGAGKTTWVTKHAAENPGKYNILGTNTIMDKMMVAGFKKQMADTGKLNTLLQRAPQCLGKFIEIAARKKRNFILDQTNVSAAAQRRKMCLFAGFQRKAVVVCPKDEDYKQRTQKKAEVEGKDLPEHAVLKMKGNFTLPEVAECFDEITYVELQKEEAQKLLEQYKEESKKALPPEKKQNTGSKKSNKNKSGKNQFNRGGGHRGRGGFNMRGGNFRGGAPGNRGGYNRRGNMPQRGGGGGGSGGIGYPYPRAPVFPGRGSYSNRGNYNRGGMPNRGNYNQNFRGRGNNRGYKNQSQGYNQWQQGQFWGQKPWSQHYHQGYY

SAF-A^CtermΔ–GFP, sequence (Q00839 2-825, stated change not applied): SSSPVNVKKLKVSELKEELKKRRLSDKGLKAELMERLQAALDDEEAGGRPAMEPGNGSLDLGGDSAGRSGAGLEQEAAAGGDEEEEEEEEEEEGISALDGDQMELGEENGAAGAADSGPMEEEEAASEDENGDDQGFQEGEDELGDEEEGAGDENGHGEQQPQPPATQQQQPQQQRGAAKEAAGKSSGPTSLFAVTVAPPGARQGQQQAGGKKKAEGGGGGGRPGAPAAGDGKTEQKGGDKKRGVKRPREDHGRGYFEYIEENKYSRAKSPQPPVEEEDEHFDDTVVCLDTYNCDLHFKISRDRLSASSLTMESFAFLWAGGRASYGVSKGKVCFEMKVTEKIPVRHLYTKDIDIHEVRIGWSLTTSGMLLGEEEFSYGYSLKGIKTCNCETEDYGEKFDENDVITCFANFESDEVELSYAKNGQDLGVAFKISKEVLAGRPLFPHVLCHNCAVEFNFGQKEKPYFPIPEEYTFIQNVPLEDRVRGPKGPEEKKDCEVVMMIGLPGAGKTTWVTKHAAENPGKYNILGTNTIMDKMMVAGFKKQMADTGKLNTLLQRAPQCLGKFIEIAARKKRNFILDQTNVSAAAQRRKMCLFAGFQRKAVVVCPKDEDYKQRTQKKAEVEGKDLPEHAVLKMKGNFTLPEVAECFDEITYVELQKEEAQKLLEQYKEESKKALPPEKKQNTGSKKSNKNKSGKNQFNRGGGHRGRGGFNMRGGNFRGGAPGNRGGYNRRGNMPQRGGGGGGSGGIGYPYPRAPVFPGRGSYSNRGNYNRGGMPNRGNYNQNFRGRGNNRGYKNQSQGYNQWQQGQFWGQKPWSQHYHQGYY

Q: Which fold reduction in histone H3 interaction relative to SAF-A^wt–GFP (SAF-A^CtermΔ–GFP) does the source give for “histone H3 (from UniProt P68431 1-136) (natural protein)” here?
A: > 7 fold

Q: And the fold reduction in histone H3 interaction relative to SAF-A^wt–GFP (SAF-A^RGG1-7Δ–GFP)?
A: > 7 fold
